In the supplement of paper PMC10065799, “High-throughput profiling of sequence recognition by tyrosine kinases and SH2 domains using bacterial peptide display” (eLife, 2023):

Tests used:
AncSZ = assay: phosphorylation enrichment, bacterial display (enrichment ratio); higher = better substrate or ligand; peptides without Tyr show the background
EPHB1 = EPHB1 (UniProt P54762); assay: as above
EPHB2 = EPHB2 (UniProt P29323); assay: as above
FGFR1 = FGFR1 (UniProt P11362); assay: as above
FGFR3 = FGFR3 (UniProt P22607); assay: as above
Fer (mouse) = assay: as above
Fes = Fes (UniProt P07332); assay: as above
Fyn = Fyn (UniProt P06241); assay: as above
Hck = Hck (UniProt P08631); assay: as above
Jak2 = Jak2 (UniProt O60674); assay: as above
MERTK = MERTK (UniProt Q12866); assay: as above
c-Abl (mouse) = assay: as above
c-Src = assay: as above
Grb2 SH2 = Grb2 SH2 (UniProt P62993); assay: SH2 binding enrichment of the phosphorylated peptide, bacterial display (enrichment ratio); higher = better substrate or ligand; peptides without Tyr show the background
SHP2-C SH2 = assay: as above
c-Src SH2 = assay: as above
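For SH2 binding enrichment of the phosphorylated peptide, bacterial display in this document: peptide library displayed on the E. coli surface as eCPX fusions, selected cells deep-sequenced, score is each peptide's frequency after selection divided by its frequency in the input.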
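For phosphorylation enrichment, bacterial display in this document: 11-residue human phosphosite peptides and single-mutation variants displayed on the E. coli surface, counted by deep sequencing, each peptide's frequency after selection divided by its frequency in the unselected input library; frequency after pTyr selection over input frequency; kinase dosed for 20-30% of maximal phosphorylation in three min.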

Chain of FGFR3 (P22607 whole entry, looked up): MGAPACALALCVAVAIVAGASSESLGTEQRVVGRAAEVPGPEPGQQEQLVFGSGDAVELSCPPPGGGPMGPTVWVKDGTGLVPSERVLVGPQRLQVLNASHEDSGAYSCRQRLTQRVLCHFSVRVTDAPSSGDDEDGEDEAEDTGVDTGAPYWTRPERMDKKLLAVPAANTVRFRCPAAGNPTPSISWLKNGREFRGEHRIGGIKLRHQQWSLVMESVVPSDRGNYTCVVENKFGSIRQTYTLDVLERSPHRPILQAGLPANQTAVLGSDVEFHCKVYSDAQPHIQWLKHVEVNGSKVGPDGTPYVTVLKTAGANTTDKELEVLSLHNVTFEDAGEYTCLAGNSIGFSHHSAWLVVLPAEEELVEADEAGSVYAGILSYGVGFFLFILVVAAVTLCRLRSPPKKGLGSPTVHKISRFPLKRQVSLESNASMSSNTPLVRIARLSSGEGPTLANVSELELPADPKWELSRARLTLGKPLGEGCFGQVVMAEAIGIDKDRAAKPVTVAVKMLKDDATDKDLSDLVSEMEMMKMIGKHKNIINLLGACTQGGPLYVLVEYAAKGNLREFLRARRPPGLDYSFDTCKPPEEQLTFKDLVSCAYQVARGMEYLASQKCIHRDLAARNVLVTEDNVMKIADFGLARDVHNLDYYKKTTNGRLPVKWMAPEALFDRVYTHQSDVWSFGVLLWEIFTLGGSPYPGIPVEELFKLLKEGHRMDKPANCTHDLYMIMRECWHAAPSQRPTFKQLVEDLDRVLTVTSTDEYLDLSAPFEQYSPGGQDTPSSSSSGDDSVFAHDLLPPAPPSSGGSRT
Chain of Fes (P07332 whole entry, looked up): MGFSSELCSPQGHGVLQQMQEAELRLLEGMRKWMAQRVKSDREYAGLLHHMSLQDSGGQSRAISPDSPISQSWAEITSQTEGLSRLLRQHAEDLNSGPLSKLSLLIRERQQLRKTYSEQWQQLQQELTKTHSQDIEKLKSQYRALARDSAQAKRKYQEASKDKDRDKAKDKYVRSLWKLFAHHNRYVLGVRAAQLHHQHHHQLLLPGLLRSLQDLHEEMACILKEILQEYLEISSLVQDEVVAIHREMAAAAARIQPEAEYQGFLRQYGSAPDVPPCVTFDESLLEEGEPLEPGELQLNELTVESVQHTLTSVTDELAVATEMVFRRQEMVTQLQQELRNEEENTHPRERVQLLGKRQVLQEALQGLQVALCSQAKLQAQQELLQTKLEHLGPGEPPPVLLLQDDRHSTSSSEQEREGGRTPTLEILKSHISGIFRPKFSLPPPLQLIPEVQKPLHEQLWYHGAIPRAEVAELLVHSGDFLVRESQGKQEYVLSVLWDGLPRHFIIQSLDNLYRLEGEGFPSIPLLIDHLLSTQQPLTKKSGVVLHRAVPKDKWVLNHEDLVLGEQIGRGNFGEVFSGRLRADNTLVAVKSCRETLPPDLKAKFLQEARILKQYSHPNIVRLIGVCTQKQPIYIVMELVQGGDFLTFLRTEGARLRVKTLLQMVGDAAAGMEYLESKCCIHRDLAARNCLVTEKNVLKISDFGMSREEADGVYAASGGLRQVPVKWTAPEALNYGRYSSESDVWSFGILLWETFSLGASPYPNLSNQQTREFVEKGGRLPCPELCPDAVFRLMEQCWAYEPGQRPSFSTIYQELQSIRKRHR
Chain of Jak2 (O60674 whole entry, looked up): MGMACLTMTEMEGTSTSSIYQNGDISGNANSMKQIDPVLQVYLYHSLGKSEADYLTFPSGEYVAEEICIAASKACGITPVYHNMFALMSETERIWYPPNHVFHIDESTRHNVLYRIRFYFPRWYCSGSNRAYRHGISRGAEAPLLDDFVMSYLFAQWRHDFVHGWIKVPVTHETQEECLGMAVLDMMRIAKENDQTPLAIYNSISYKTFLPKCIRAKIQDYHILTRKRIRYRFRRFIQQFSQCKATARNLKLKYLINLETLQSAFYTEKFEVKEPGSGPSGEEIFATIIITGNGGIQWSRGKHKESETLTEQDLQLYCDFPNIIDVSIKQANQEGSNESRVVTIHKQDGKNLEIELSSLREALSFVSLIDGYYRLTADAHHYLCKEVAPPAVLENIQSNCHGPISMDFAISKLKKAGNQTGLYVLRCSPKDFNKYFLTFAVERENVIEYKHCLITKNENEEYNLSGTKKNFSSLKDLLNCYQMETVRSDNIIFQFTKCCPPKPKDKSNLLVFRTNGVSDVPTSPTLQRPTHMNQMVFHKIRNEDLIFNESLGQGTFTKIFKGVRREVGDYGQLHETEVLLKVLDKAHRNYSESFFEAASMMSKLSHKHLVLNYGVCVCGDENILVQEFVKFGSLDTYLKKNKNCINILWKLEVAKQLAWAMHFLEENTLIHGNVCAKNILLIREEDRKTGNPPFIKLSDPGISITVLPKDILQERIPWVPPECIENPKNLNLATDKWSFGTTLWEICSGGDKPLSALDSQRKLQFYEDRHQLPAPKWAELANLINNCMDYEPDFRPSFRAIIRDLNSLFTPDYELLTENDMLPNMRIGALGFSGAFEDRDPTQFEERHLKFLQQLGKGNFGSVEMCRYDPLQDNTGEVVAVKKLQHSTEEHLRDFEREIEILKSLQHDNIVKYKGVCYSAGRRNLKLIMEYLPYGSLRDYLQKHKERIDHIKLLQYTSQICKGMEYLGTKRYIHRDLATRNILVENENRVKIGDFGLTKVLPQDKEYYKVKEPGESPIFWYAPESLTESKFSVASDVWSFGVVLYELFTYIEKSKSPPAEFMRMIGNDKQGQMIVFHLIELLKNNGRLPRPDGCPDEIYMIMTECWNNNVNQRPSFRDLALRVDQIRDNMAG
Chain of Hck (P08631 whole entry, looked up): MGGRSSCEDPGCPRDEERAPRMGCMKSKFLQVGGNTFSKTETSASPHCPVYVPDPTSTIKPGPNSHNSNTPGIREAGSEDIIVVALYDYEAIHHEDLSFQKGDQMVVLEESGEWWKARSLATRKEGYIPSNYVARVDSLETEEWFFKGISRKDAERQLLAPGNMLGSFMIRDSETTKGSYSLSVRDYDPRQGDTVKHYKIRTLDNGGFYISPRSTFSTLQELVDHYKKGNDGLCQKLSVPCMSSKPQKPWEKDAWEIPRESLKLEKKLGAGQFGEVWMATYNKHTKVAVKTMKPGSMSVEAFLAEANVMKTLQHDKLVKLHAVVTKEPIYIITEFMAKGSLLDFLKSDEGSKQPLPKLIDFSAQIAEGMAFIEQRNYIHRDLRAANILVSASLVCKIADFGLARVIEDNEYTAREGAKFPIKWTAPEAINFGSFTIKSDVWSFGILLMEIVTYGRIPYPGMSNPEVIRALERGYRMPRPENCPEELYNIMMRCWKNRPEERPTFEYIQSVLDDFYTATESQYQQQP
Chain of EPHB1 (P54762 whole entry, looked up): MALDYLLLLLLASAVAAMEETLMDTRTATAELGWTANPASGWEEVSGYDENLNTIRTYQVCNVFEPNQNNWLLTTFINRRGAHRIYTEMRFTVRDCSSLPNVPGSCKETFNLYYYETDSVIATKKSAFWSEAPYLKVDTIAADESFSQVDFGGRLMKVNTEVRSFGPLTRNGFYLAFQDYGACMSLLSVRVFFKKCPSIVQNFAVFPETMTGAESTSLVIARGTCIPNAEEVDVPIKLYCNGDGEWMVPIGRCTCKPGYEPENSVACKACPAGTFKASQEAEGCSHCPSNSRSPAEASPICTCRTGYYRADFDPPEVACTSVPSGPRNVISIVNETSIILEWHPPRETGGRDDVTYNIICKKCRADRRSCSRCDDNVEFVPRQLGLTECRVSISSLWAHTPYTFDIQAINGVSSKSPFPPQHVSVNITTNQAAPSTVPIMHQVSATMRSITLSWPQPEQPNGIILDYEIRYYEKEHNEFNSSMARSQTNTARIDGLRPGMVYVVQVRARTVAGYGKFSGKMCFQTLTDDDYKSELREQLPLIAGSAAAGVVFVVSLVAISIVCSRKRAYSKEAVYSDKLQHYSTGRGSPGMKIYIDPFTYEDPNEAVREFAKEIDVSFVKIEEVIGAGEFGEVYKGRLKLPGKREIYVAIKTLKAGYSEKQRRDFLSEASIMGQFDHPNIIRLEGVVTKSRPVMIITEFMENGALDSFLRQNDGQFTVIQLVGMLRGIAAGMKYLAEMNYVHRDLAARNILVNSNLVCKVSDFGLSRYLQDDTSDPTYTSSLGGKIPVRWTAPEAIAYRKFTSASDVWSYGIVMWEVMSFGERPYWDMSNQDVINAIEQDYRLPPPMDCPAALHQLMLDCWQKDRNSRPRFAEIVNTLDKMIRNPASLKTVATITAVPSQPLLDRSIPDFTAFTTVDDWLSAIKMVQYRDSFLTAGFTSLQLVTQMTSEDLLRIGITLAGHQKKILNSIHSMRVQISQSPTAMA
Chain of Fyn (P06241 whole entry, looked up): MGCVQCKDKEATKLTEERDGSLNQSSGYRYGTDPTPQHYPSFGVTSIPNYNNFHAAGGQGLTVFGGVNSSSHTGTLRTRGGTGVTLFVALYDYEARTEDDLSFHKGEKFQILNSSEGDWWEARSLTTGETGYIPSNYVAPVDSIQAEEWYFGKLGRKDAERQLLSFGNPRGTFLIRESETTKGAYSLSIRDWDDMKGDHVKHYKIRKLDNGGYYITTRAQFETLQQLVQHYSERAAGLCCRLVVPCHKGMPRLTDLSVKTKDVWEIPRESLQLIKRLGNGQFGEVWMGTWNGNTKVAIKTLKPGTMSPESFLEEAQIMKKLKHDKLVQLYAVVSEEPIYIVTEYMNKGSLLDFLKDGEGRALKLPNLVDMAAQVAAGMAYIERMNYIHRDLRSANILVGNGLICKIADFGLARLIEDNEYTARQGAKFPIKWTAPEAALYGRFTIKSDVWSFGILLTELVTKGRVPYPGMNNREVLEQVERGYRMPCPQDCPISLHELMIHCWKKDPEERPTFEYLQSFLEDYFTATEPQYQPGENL

| Sequence | SH2 binding enrichment (Grb2 SH2) | SH2 binding enrichment (SHP2-C SH2) | SH2 binding enrichment (c-Src SH2) | phosphorylation enrichment (AncSZ) | phosphorylation enrichment (EPHB1) | phosphorylation enrichment (EPHB2) | phosphorylation enrichment (FGFR1) | phosphorylation enrichment (FGFR3) | phosphorylation enrichment (Fer (mouse)) | phosphorylation enrichment (Fes) | phosphorylation enrichment (Fyn) | phosphorylation enrichment (Hck) | phosphorylation enrichment (Jak2) | phosphorylation enrichment (MERTK) | phosphorylation enrichment (c-Abl (mouse)) | phosphorylation enrichment (c-Src) |
| --- | --- | --- | --- | --- | --- | --- | --- | --- | --- | --- | --- | --- | --- | --- | --- | --- |
| KNNDGYTDYAE [MCFD2_Y135_I136T] | 0.766 | 0.588 | 1.79 | 0.941 | 0.475 | 0.57 | 0.515 | 0.597 | 0.381 | 1 | 0.463 | 0.461 | 0.831 | 0.458 | 0.85 | 0.383 |
| KNSFKYYMSDD [ATRX_Y203_C200S] | 0.848 | 0.661 | 0.708 | 0.92 | 0.507 | 0.531 | 0.486 | 0.604 | 0.405 | 1.02 | 0.468 | 0.477 | 0.947 | 0.479 | 0.671 | 0.44 |
| KRNSLYSFSDH [CCDC82_Y331_Q327R] | 0.89 | 0.846 | 0.548 | 0.531 | 0.458 | 0.379 | 0.411 | 0.471 | 0.829 | 0.55 | 1.54 | 0.964 | 0.416 | 4.12 | 0.569 | 1.33 |
| KSLFHYRQFSA [CPS1_Y1491_YF] | 0.734 | 0.601 | 0.395 | 0.656 | 0.553 | 0.453 | 0.546 | 0.498 | 0.534 | 0.859 | 0.466 | 0.42 | 0.942 | 0.415 | 0.59 | 0.472 |
| KSMFVYCTPNK [ATP2A2_Y497_S495F] | 0.925 | 0.484 | 0.679 | 1.22 | 0.6 | 0.673 | 0.587 | 0.768 | 0.565 | 1.19 | 0.473 | 0.568 | 1.12 | 0.452 | 1.05 | 0.494 |
| KSPGEYVNIEF [IRS1_Y896] | 3.04 | 1.26 | 4.93 | 0.906 | 0.653 | 0.736 | 1.35 | 1.06 | 0.505 | 0.812 | 0.49 | 0.575 | 0.623 | 0.546 | 0.706 | 0.47 |
| KTDVHYRSLGG [DYSF_Y1858] | 0.74 | 0.649 | 0.472 | 0.468 | 0.329 | 0.371 | 0.334 | 0.511 | 0.335 | 0.515 | 0.364 | 0.371 | 0.48 | 0.377 | 0.426 | 0.359 |
| KVKVEYDMTVP [AHNAK_Y964_G962V] | 0.838 | 0.659 | 0.79 | 0.94 | 0.45 | 0.59 | 0.495 | 0.646 | 0.51 | 1.03 | 0.492 | 0.485 | 0.872 | 0.478 | 0.862 | 0.555 |
| KVVNEYVTKGQ [MYH7_Y410_G407V] | 0.857 | 0.798 | 0.369 | 0.806 | 0.358 | 0.451 | 0.431 | 0.489 | 0.393 | 0.601 | 0.36 | 0.402 | 0.53 | 0.375 | 0.513 | 0.433 |
| LAETSYVIVLE [MAGEA1_Y276_K278I] | 0.641 | 0.983 | 0.479 | 1.8 | 1.06 | 0.99 | 0.688 | 0.997 | 0.734 | 2.35 | 0.791 | 0.727 | 2.19 | 0.616 | 1.54 | 1 |
| LANNEYFFRVC | 1.05 | 0.884 | 0.634 | 1.23 | 0.733 | 0.917 | 1.31 | 1.47 | 0.505 | 1.19 | 0.74 | 0.53 | 1.38 | 0.517 | 0.698 | 0.55 |

Further lines, with some results ahead:

| SH2 binding enrichment (Grb2 SH2) | SH2 binding enrichment (SHP2-C SH2) | SH2 binding enrichment (c-Src SH2) | Sequence | phosphorylation enrichment (AncSZ) | phosphorylation enrichment (EPHB1) | phosphorylation enrichment (EPHB2) | phosphorylation enrichment (FGFR1) | phosphorylation enrichment (FGFR3) | phosphorylation enrichment (Fer (mouse)) | phosphorylation enrichment (Fes) | phosphorylation enrichment (Fyn) | phosphorylation enrichment (Hck) | phosphorylation enrichment (Jak2) | phosphorylation enrichment (MERTK) | phosphorylation enrichment (c-Abl (mouse)) | phosphorylation enrichment (c-Src) |
| --- | --- | --- | --- | --- | --- | --- | --- | --- | --- | --- | --- | --- | --- | --- | --- | --- |
| 1.08 | 1.05 | 0.671 | KNNSIYVVANI [VNN1_Y134] | 0.982 | 0.74 | 0.761 | 0.701 | 0.821 | 0.727 | 1.14 | 0.765 | 0.888 | 1.04 | 0.885 | 0.8 | 0.705 |
| 0.808 | 0.558 | 0.485 | KPLMPCMRYSR [SMARCE1_Y73_Y73C] | 0.821 | 0.404 | 0.535 | 0.407 | 0.476 | 0.452 | 0.791 | 0.458 | 0.517 | 0.756 | 0.538 | 0.781 | 0.444 |
| 0.64 | 0.53 | 0.502 | KRISCYEASFQ [PFKFB3_Y194_YF] | 0.973 | 0.58 | 0.536 | 0.523 | 0.85 | 0.593 | 1.11 | 0.452 | 0.49 | 1.06 | 0.527 | 0.88 | 0.568 |
| 0.532 | 0.344 | 0.456 | KRRGPYEMSPS [PLPP7_Y172_T174M] | 0.58 | 0.323 | 0.371 | 0.338 | 0.377 | 0.345 | 0.452 | 0.387 | 0.445 | 0.459 | 0.402 | 0.508 | 0.45 |
| 0.885 | 0.838 | 0.451 | LDPIQYSKHPP [SQSTM1_Y433_T430P] | 0.691 | 0.473 | 0.588 | 0.624 | 0.828 | 0.634 | 0.663 | 0.472 | 0.795 | 0.481 | 0.384 | 0.448 | 0.303 |
| 3.37 | 0.668 | 1.05 | LDPMVYMNDTS [PTK2B_Y834_K838T] | 0.958 | 0.494 | 0.734 | 0.64 | 0.708 | 0.787 | 1.11 | 0.588 | 0.728 | 1.48 | 0.7 | 1.32 | 0.811 |
